Measured values as given in US20230037682A1 (published 2023).
Read-outs that look alike come from different tables or passages of the source.

B1: CD3_12 (NOV123) (antibody, V domains shown)
VH: QVQLVQSGAEVKKPGASVKVSCKASGYTFTSYYIYWVRQAPGQRLEWMGYIYPGHDAIYYSENFKGRVTITADTSASTAYMELSSLRSEDTAVYYCVRPNTMMAPLAYWGQGTLVTVSS
VL: DVVMTQSPLSLPVTLGQPASISCRSSQSLIYSIGNTYLHWYQQRPGQSPRLLIYRVSNRFSGVPDRFSGSGSGTDFTLKISRVEAEDVGVYYCFQSTHLPYTFGQGTKLEIKR
B2: CD3_13 (NOV292) (antibody, V domains shown)
VH: QVQLVESGGGVVQPGRSLRLSCAASGFTFSKNGMHWVRQAPGKGLEWVAMIYYDSSKMYYADTVKGRFTISRDNSKNTLYLQMNSLRAEDTAVYYCASFWWDLDFDHWGQGTMVTVSS
VL: DIVMTQTPLSSPVTLGQPASISCRSSQSLVRSDGTTYFNWYQQRPGQPPRLLIYRVSNRFSGVPDRFSGSGAGTDFTLKISRVEAEDVGVYYCLQSSHFPWTFGGGTKVEIKR

How the values were obtained:
CD3 peptide [1] = experiment: SPR (Biacore); 25 °C
CD3 peptide [2] = experiment: SPR (Biacore); 25 °C; remark: listed apart in the source

| Binder | Kd (CD3 peptide [1]) | Kd (CD3 peptide [2]) |
| --- | --- | --- |
| B1 | 262 nM |  |
| B2 |  | 4.59 nM |
